Laboratory results taken from the supplement of paper PMC9732359.
± gives the uncertainty stated by the source.

Assay: protein stability index of a GFP-peptide fusion (yeast GPS) (PSI 1-4); higher = more stable; sorted into four equal gates, so the index is relative within each strain
Summary of the method: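 Plasmids isolated from each sorting gate were PCR-amplified and Illumina-sequenced, and barcodes assigned the reads to strains. The gates, four of equal size, were set by GFP/Cherry fluorescence ratio on mid-log cultures in leucine-free medium. These cultures were yeast carrying a pooled library of tiled 17-residue yeast protein peptides fused downstream of GFP on a plasmid that also expresses Cherry. The protein stability index is the sum of every gate's read frequency times its gate number.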

## TGKDCVAIACDLRLGSQ [PUP3]
doa10∆
  protein stability index: 1.38 ± 0.088
pdr5∆
  protein stability index: 1.48 ± 0.092
san1∆
  protein stability index: 2.32 ± 0.064
ubr1∆
  protein stability index: 2.7 ± 0.061

## TGLHFGRLSLRSLTAYA [QCR10]
doa10∆
  protein stability index: 1.22 ± 0.044
pdr5∆
  protein stability index: 1.5 ± 0.059
san1∆
  protein stability index: 1.39 ± 0.095
ubr1∆
  protein stability index: 1.65 ± 0.055

## TGLSQIPNRRFTLWWSP [PRP8]
doa10∆
  protein stability index: 3.04 ± 0.058
pdr5∆
  protein stability index: 2.78 ± 0.056
san1∆
  protein stability index: 1.87 ± 0.048
ubr1∆
  protein stability index: 2.52 ± 0.042

## TGLVSIRGKILTGTVVS [RPS11A]
doa10∆
  protein stability index: 2.45 ± 0.052
pdr5∆
  protein stability index: 2.75 ± 0.053
san1∆
  protein stability index: 2.58 ± 0.053
ubr1∆
  protein stability index: 2.89 ± 0.038

## TGPIEPKARQELPTQLA [RRP46]
doa10∆
  protein stability index: 2.82 ± 0.072
pdr5∆
  protein stability index: 2.79 ± 0.074
san1∆
  protein stability index: 3.21 ± 0.089
ubr1∆
  protein stability index: 3.04 ± 0.056

## TGPKQQEITTNLENHFK [SCL1]
doa10∆
  protein stability index: 2.94 ± 0.044
pdr5∆
  protein stability index: 2.97 ± 0.037
san1∆
  protein stability index: 3.04 ± 0.032
ubr1∆
  protein stability index: 2.9 ± 0.03

## THAVGNNCEDFVSRPDR [FAS1]
doa10∆
  protein stability index: 3.16 ± 0.12
pdr5∆
  protein stability index: 3.08 ± 0.18
san1∆
  protein stability index: 2.97 ± 0.072
ubr1∆
  protein stability index: 3.04 ± 0.087

## THNDIDSTAVALEEGLN [YJL039C/NUP192]
doa10∆
  protein stability index: 2.78 ± 0.096
pdr5∆
  protein stability index: 3.05 ± 0.047
san1∆
  protein stability index: 2.53 ± 0.082
ubr1∆
  protein stability index: 2.56 ± 0.06

## THNSYEKACQVLKYMLL [RPN6]
doa10∆
  protein stability index: 2.18 ± 0.076
pdr5∆
  protein stability index: 2.44 ± 0.073
san1∆
  protein stability index: 2.23 ± 0.087
ubr1∆
  protein stability index: 3.26 ± 0.071

## THSQTGTQQSNMYTSTQ [SIR4]
doa10∆
  protein stability index: 3.03 ± 0.061
pdr5∆
  protein stability index: 3.16 ± 0.046
san1∆
  protein stability index: 2.93 ± 0.051
ubr1∆
  protein stability index: 3.08 ± 0.055

## TICIELKTVLHNGRDKI [RGR1]
doa10∆
  protein stability index: 1.55 ± 0.051
pdr5∆
  protein stability index: 1.62 ± 0.062
san1∆
  protein stability index: 1.78 ± 0.085
ubr1∆
  protein stability index: 1.78 ± 0.067

## TIDNIDSENFSFEKLYE [YMR129W/POM152]
doa10∆
  protein stability index: 3.3 ± 0.085
pdr5∆
  protein stability index: 3.26 ± 0.076
san1∆
  protein stability index: 3.33 ± 0.074
ubr1∆
  protein stability index: 3.17 ± 0.047

## TIGKRRTTTNTTAEPKA [TAF14]
doa10∆
  protein stability index: 3.07 ± 0.064
pdr5∆
  protein stability index: 3.26 ± 0.042
san1∆
  protein stability index: 3.15 ± 0.045
ubr1∆
  protein stability index: 3.2 ± 0.05

## TISECNLYDDVKCWSKF [MED1]
doa10∆
  protein stability index: 2.27 ± 0.093
pdr5∆
  protein stability index: 2.34 ± 0.2
san1∆
  protein stability index: 3.38 ± 0.071
ubr1∆
  protein stability index: 3.14 ± 0.12

## TISQALLNAADRDALSG [PUP3]
doa10∆
  protein stability index: 2.82 ± 0.12
pdr5∆
  protein stability index: 2.11 ± 0.097
san1∆
  protein stability index: 1.95 ± 0.17
ubr1∆
  protein stability index: 1.95 ± 0.068

## TISSADFIQNVGRLWDQ [ECM29]
doa10∆
  protein stability index: 2.98 ± 0.15
pdr5∆
  protein stability index: 3.5 ± 0.14
san1∆
  protein stability index: 3.39 ± 0.083
ubr1∆
  protein stability index: 3.42 ± 0.061

## TIVQLCKKKEMSQYQST [YIL149C/MLP2]
doa10∆
  protein stability index: 1.88 ± 0.063
pdr5∆
  protein stability index: 2.14 ± 0.061
san1∆
  protein stability index: 1.76 ± 0.091
ubr1∆
  protein stability index: 1.8 ± 0.052

## TIVSNVEEKPGDRGALA [RPL2A]
doa10∆
  protein stability index: 3.16 ± 0.095
pdr5∆
  protein stability index: 3.1 ± 0.075
san1∆
  protein stability index: 3.37 ± 0.058
ubr1∆
  protein stability index: 3.4 ± 0.12

## TKDPDEQQLFEIFAFGN [CSN9]
doa10∆
  protein stability index: 3.18 ± 0.13
pdr5∆
  protein stability index: 3.09 ± 0.088
san1∆
  protein stability index: 3.17 ± 0.052
ubr1∆
  protein stability index: 2.83 ± 0.053

## TKEQYAAESKKYRQTKL [RPL5]
doa10∆
  protein stability index: 3.17 ± 0.14
pdr5∆
  protein stability index: 3.28 ± 0.18
san1∆
  protein stability index: 3.37 ± 0.094
ubr1∆
  protein stability index: 3.12 ± 0.1

## TKLHSGDYGEEEDADQE [SRB8]
doa10∆
  protein stability index: 2.5 ± 0.16
pdr5∆
  protein stability index: 2.58 ± 0.12
ubr1∆
  protein stability index: 2.38 ± 0.2

## TKMDGHARGGGAISAVA [SRP54]
san1∆
  protein stability index: 3.51 ± 0.14
ubr1∆
  protein stability index: 3.62 ± 0.26

## TKNNTQASGITAGAAAN [SSN3]
doa10∆
  protein stability index: 1.86 ± 0.094
pdr5∆
  protein stability index: 2.08 ± 0.051
san1∆
  protein stability index: 2.07 ± 0.11
ubr1∆
  protein stability index: 1.97 ± 0.062

## TKSETKQENETMQPPYI [MED11]
doa10∆
  protein stability index: 2.95 ± 0.051
pdr5∆
  protein stability index: 2.85 ± 0.059
san1∆
  protein stability index: 2.7 ± 0.1
ubr1∆
  protein stability index: 2.96 ± 0.042

## TKSPAYPMMHQVRNQVF [RGR1]
doa10∆
  protein stability index: 1.78 ± 0.047
pdr5∆
  protein stability index: 1.88 ± 0.054
san1∆
  protein stability index: 1.8 ± 0.077
ubr1∆
  protein stability index: 2.23 ± 0.047

## TKYSDVLGFLQLFHNLI [YJL039C/NUP192]
doa10∆
  protein stability index: 2.75 ± 0.063
pdr5∆
  protein stability index: 2.65 ± 0.062
san1∆
  protein stability index: 2.86 ± 0.048
ubr1∆
  protein stability index: 2.94 ± 0.049

## TKYTDDMATGSNDTTAF [SRB8]
doa10∆
  protein stability index: 3.04 ± 0.086
pdr5∆
  protein stability index: 3.14 ± 0.087
san1∆
  protein stability index: 3.45 ± 0.057
ubr1∆
  protein stability index: 3.29 ± 0.058

## TLDNIDDINKAKAVWEN [ARP9]
doa10∆
  protein stability index: 3.14 ± 0.058
pdr5∆
  protein stability index: 3.18 ± 0.062
san1∆
  protein stability index: 3.29 ± 0.051
ubr1∆
  protein stability index: 3.27 ± 0.058

## TLDNPLLVDKDANGVSL [YJL039C/NUP192]
doa10∆
  protein stability index: 3.17 ± 0.057
pdr5∆
  protein stability index: 3.12 ± 0.048
san1∆
  protein stability index: 3.08 ± 0.038
ubr1∆
  protein stability index: 3.13 ± 0.035

## TLDREYITLKATFLKDD [QCR2]
doa10∆
  protein stability index: 1.38 ± 0.065
pdr5∆
  protein stability index: 1.44 ± 0.045
san1∆
  protein stability index: 1.51 ± 0.1
ubr1∆
  protein stability index: 1.5 ± 0.048

## TLETIEIHPITFPPEVL [RRP43]
doa10∆
  protein stability index: 1.9 ± 0.045
pdr5∆
  protein stability index: 2.25 ± 0.045
san1∆
  protein stability index: 2.3 ± 0.06
ubr1∆
  protein stability index: 2.01 ± 0.035

## TLISRISSLFTITTILI [YML103C/NUP188]
doa10∆
  protein stability index: 1.63 ± 0.068
pdr5∆
  protein stability index: 1.8 ± 0.066
san1∆
  protein stability index: 1.37 ± 0.088
ubr1∆
  protein stability index: 2.02 ± 0.11

## TLKYICAECSSKLSLSR [RPC10]
doa10∆
  protein stability index: 2.46 ± 0.063
pdr5∆
  protein stability index: 2.51 ± 0.069
san1∆
  protein stability index: 2.7 ± 0.057
ubr1∆
  protein stability index: 2.65 ± 0.056

## TLNNIFRFDSIQRETLL [GRR1]
doa10∆
  protein stability index: 2.88 ± 0.075
pdr5∆
  protein stability index: 2.59 ± 0.081
san1∆
  protein stability index: 2.75 ± 0.052
ubr1∆
  protein stability index: 3.1 ± 0.04

## TLRTISFKGSPNERKAK [SNF2]
doa10∆
  protein stability index: 3.19 ± 0.17
san1∆
  protein stability index: 2.74 ± 0.15
ubr1∆
  protein stability index: 2.51 ± 0.13

## TMLITGQRPDRATTYEK [SIN4]
doa10∆
  protein stability index: 3.06 ± 0.11
pdr5∆
  protein stability index: 3.09 ± 0.15
san1∆
  protein stability index: 3.25 ± 0.07
ubr1∆
  protein stability index: 3.22 ± 0.05

## TMMANFEEWIKMATDNK [BRN1]
doa10∆
  protein stability index: 3.19 ± 0.12
pdr5∆
  protein stability index: 3.16 ± 0.11
san1∆
  protein stability index: 3.08 ± 0.1
ubr1∆
  protein stability index: 3.35 ± 0.1

## TNAFLDSLTRAVKDQQK [SNF2]
doa10∆
  protein stability index: 2.46 ± 0.072
pdr5∆
  protein stability index: 2.47 ± 0.071
san1∆
  protein stability index: 2.68 ± 0.049
ubr1∆
  protein stability index: 2.56 ± 0.046

## TNAPLRTLNIQPEVAVK [YIL149C/MLP2]
doa10∆
  protein stability index: 2.08 ± 0.051
pdr5∆
  protein stability index: 2.03 ± 0.048
san1∆
  protein stability index: 1.65 ± 0.096
ubr1∆
  protein stability index: 2.23 ± 0.042

## TNKENNIVDSSAAGNKA [YIL149C/MLP2]
doa10∆
  protein stability index: 2.18 ± 0.061
pdr5∆
  protein stability index: 2.44 ± 0.057
san1∆
  protein stability index: 2.87 ± 0.041
ubr1∆
  protein stability index: 2.92 ± 0.036

## TNLKNHPAYLFKGLETP [YLR018C/POM34]
doa10∆
  protein stability index: 2.38 ± 0.055
pdr5∆
  protein stability index: 2.51 ± 0.039
san1∆
  protein stability index: 1.59 ± 0.061
ubr1∆
  protein stability index: 2.36 ± 0.028

## TNNDSNNKNNSITTGND [MED2]
doa10∆
  protein stability index: 2.69 ± 0.1
pdr5∆
  protein stability index: 2.64 ± 0.057
san1∆
  protein stability index: 2.7 ± 0.081
ubr1∆
  protein stability index: 1.87 ± 0.043

## TNNGNDDNETENPNFWR [GRR1]
doa10∆
  protein stability index: 2.74 ± 0.066
pdr5∆
  protein stability index: 3.16 ± 0.05
san1∆
  protein stability index: 2.37 ± 0.053
ubr1∆
  protein stability index: 2.75 ± 0.041

## TNNTIRYNAKRRNWRRT [RPL39]
pdr5∆
  protein stability index: 3.02 ± 0.22
ubr1∆
  protein stability index: 3.58 ± 0.14

## TNQLKSLKGLQSKLKDV [RPN8]
pdr5∆
  protein stability index: 1.59 ± 0.23
san1∆
  protein stability index: 2.62 ± 0.19
ubr1∆
  protein stability index: 1.36 ± 0.13

## TNSEDKLSKVQLYEDLC [MED4]
doa10∆
  protein stability index: 3.04 ± 0.083
pdr5∆
  protein stability index: 3.22 ± 0.091
san1∆
  protein stability index: 3.09 ± 0.081
ubr1∆
  protein stability index: 2.74 ± 0.059

## TNSHYNNTNTDNVSGLT [SNF2]
doa10∆
  protein stability index: 3.19 ± 0.062
pdr5∆
  protein stability index: 3.31 ± 0.046
san1∆
  protein stability index: 3.37 ± 0.044
ubr1∆
  protein stability index: 3.25 ± 0.034

## TNVIAFAFWNLLVKFIK [YLR018C/POM34]
doa10∆
  protein stability index: 1.42 ± 0.092
pdr5∆
  protein stability index: 1.39 ± 0.084
san1∆
  protein stability index: 1.29 ± 0.16
ubr1∆
  protein stability index: 1.48 ± 0.042

## TNVNPSKNFNVILASSL [YML103C/NUP188]
doa10∆
  protein stability index: 1.82 ± 0.05
pdr5∆
  protein stability index: 2.16 ± 0.048
san1∆
  protein stability index: 1.99 ± 0.08
ubr1∆
  protein stability index: 1.91 ± 0.045

## TNWARTTFRNEYGKHDF [MED8]
doa10∆
  protein stability index: 2.82 ± 0.097
pdr5∆
  protein stability index: 2.56 ± 0.079
san1∆
  protein stability index: 2.91 ± 0.088
ubr1∆
  protein stability index: 3.55 ± 0.19

## TNYEMSYWQKSYFKNSV [LIN1]
doa10∆
  protein stability index: 2.07 ± 0.038
pdr5∆
  protein stability index: 2.09 ± 0.036
san1∆
  protein stability index: 2.09 ± 0.061
ubr1∆
  protein stability index: 1.99 ± 0.037

## TPKYRLVVRFTNKDIIC [RPL5]
doa10∆
  protein stability index: 1.75 ± 0.078
pdr5∆
  protein stability index: 1.64 ± 0.11
san1∆
  protein stability index: 1.17 ± 0.2
ubr1∆
  protein stability index: 1.36 ± 0.071
